Test system: Escherichia coli TOP10
Assay: shrunken log2 fold change of peptide-encoding DNA abundance (4.5 h post-induction vs induction); higher = less antimicrobial activity (less host growth inhibition)
Settings: time post-induction: 4.5 h; library: site-saturation at positions 5, 18, 19, 20
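Also: peptides expressed intracellularly from a pBAD plasmid library in pooled LB shake-flask culture, induced with 0.3% L-arabinose, DNA abundance read by NGS, three biological replicates, DESeq2 with apeglm shrinkage.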

Row | Sequence | shrunken log2 fold change
1 | RRIRDRPPRLPRPRPRPEIAPRP | 1.31
2 | RRIRMRPPRLPRPRPRPMCYPRP | 0.0406
3 | RRIRVRPPRLPRPRPRPNIDPRP | -0.258
4 | RRIRNRPPRLPRPRPRPMNPPRP | -0.235
5 | RRIRGRPPRLPRPRPRPCRDPRP | 0.128
6 | RRIRQRPPRLPRPRPRPFVDPRP | -0.00879
7 | RRIRWRPPRLPRPRPRPECHPRP | 0.563
8 | RRIRSRPPRLPRPRPRPTTHPRP | 0.0655
9 | RRIRHRPPRLPRPRPRPNHCPRP | -0.0509
10 | RRIRNRPPRLPRPRPRPWNWPRP | -0.0655
11 | RRIRSRPPRLPRPRPRPHESPRP | -0.15
12 | RRIRWRPPRLPRPRPRPYEFPRP | -0.00843
13 | RRIRIRPPRLPRPRPRPWHWPRP | -0.0771
14 | RRIRSRPPRLPRPRPRPHKWPRP | -0.296
15 | RRIRPRPPRLPRPRPRPAVGPRP | 0.414
16 | RRIRPRPPRLPRPRPRPQNVPRP | -0.212
17 | RRIRNRPPRLPRPRPRPIPHPRP | 0.134
18 | RRIRVRPPRLPRPRPRPQHDPRP | -0.0871
19 | RRIRYRPPRLPRPRPRPTPHPRP | -0.181
20 | RRIRMRPPRLPRPRPRPELPPRP | 2.29
21 | RRIRWRPPRLPRPRPRPTEAPRP | 0.214
22 | RRIRFRPPRLPRPRPRPWIAPRP | -0.0534
23 | RRIRHRPPRLPRPRPRPITKPRP | -0.107
24 | RRIRMRPPRLPRPRPRPGHCPRP | -0.0518
25 | RRIRLRPPRLPRPRPRPVFVPRP | -0.198

Row | Sequence | shrunken log2 fold change
26 | RRIRDRPPRLPRPRPRPCWCPRP | -0.00088
27 | RRIRPRPPRLPRPRPRPEFPPRP | -0.00714
28 | RRIRYRPPRLPRPRPRPWPFPRP | -0.218
29 | RRIRTRPPRLPRPRPRPFEKPRP | -0.0979
30 | RRIRDRPPRLPRPRPRPVKFPRP | 0.284
31 | RRIRPRPPRLPRPRPRPDWFPRP | 0.0805
32 | RRIRQRPPRLPRPRPRPGSWPRP | 0.298
33 | RRIRGRPPRLPRPRPRPWKEPRP | 0.275
34 | RRIRARPPRLPRPRPRPPLEPRP | 0.583
35 | RRIRFRPPRLPRPRPRPFFYPRP | -0.308
36 | RRIRPRPPRLPRPRPRPISPPRP | -0.115
37 | RRIRDRPPRLPRPRPRPHKPPRP | -0.000627
38 | RRIRRRPPRLPRPRPRPSDQPRP | 0.0918
39 | RRIRWRPPRLPRPRPRPAGWPRP | 0.922
40 | RRIRPRPPRLPRPRPRPGAAPRP | 0.552
41 | RRIRIRPPRLPRPRPRPTMAPRP | -0.445
42 | RRIRPRPPRLPRPRPRPYWFPRP | -0.579
43 | RRIRCRPPRLPRPRPRPQISPRP | -0.785
44 | RRIRPRPPRLPRPRPRPHEHPRP | 0.0125
45 | RRIRWRPPRLPRPRPRPYEDPRP | -0.231
46 | RRIRKRPPRLPRPRPRPHWMPRP | 0.0937
47 | RRIRFRPPRLPRPRPRPSYQPRP | -0.451
48 | RRIRSRPPRLPRPRPRPIVRPRP | -0.11
49 | RRIRARPPRLPRPRPRPDVLPRP | 0.579
50 | RRIRQRPPRLPRPRPRPRWNPRP | -0.0799

Row | Sequence | shrunken log2 fold change
51 | RRIRNRPPRLPRPRPRPFRLPRP | -0.505
52 | RRIRQRPPRLPRPRPRPFPKPRP | 0.0141
53 | RRIRKRPPRLPRPRPRPMSPPRP | -0.0332
54 | RRIRKRPPRLPRPRPRPRTMPRP | 0.179
55 | RRIRKRPPRLPRPRPRPMTKPRP | 0.397
56 | RRIRFRPPRLPRPRPRPSHQPRP | -0.229
57 | RRIRMRPPRLPRPRPRPKHTPRP | 1.93
58 | RRIRHRPPRLPRPRPRPYHAPRP | -1.21
59 | RRIRDRPPRLPRPRPRPSFWPRP | 0.585
60 | RRIRFRPPRLPRPRPRPAVKPRP | -0.137
61 | RRIRGRPPRLPRPRPRPTISPRP | 0.534
62 | RRIRERPPRLPRPRPRPDWSPRP | -0.0645
63 | RRIRNRPPRLPRPRPRPVMLPRP | -0.171
64 | RRIRERPPRLPRPRPRPAIRPRP | -0.0312
65 | RRIRARPPRLPRPRPRPQWKPRP | 0.179
66 | RRIRFRPPRLPRPRPRPWYCPRP | -0.706
67 | RRIRLRPPRLPRPRPRPDEDPRP | 0.0258
68 | RRIRWRPPRLPRPRPRPPPIPRP | 0.574
69 | RRIRCRPPRLPRPRPRPHVTPRP | -0.64
70 | RRIRIRPPRLPRPRPRPACVPRP | 0.0215
71 | RRIRFRPPRLPRPRPRPRGEPRP | 0.125
72 | RRIRGRPPRLPRPRPRPRNVPRP | 0.642
73 | RRIRCRPPRLPRPRPRPPWDPRP | 0.526
74 | RRIRRRPPRLPRPRPRPSYYPRP | -0.0156
75 | RRIRYRPPRLPRPRPRPPFWPRP | 0.395

Row | Sequence | shrunken log2 fold change
76 | RRIRYRPPRLPRPRPRPCCKPRP | 0.0599
77 | RRIRCRPPRLPRPRPRPTAQPRP | 0.301
78 | RRIRSRPPRLPRPRPRPLPRPRP | 0.741
79 | RRIRTRPPRLPRPRPRPVCVPRP | 0.182
80 | RRIRDRPPRLPRPRPRPYTDPRP | 0.0446
81 | RRIRQRPPRLPRPRPRPFPAPRP | -0.0923
82 | RRIRVRPPRLPRPRPRPITQPRP | -0.0754
83 | RRIRPRPPRLPRPRPRPEMIPRP | -0.0258
84 | RRIRSRPPRLPRPRPRPLWYPRP | -0.327
85 | RRIRNRPPRLPRPRPRPRWTPRP | 0.0415
86 | RRIRFRPPRLPRPRPRPGGPPRP | 0.511
87 | RRIRFRPPRLPRPRPRPKQYPRP | -0.43
88 | RRIRTRPPRLPRPRPRPDKVPRP | -0.0275
89 | RRIRSRPPRLPRPRPRPDHDPRP | -0.357
90 | RRIRLRPPRLPRPRPRPILYPRP | -0.314
91 | RRIRFRPPRLPRPRPRPVRFPRP | 0.429
92 | RRIRNRPPRLPRPRPRPQLTPRP | -0.026
93 | RRIRWRPPRLPRPRPRPQANPRP | 0.395
94 | RRIRSRPPRLPRPRPRPNSVPRP | -0.509
95 | RRIRMRPPRLPRPRPRPHQFPRP | -0.0236
96 | RRIRQRPPRLPRPRPRPLGGPRP | -0.12
97 | RRIRWRPPRLPRPRPRPHDHPRP | -0.152
98 | RRIRMRPPRLPRPRPRPQVTPRP | -0.116
99 | RRIRDRPPRLPRPRPRPEHKPRP | 0.0114
100 | RRIRARPPRLPRPRPRPGDDPRP | 0.846

Row | Sequence | shrunken log2 fold change
101 | RRIRSRPPRLPRPRPRPYRFPRP | -0.134
102 | RRIRQRPPRLPRPRPRPEQKPRP | 0.039
103 | RRIRERPPRLPRPRPRPCKHPRP | -0.5
104 | RRIRSRPPRLPRPRPRPHWSPRP | -0.0455
105 | RRIRARPPRLPRPRPRPPSTPRP | 0.563
106 | RRIRKRPPRLPRPRPRPALKPRP | 0.48
107 | RRIRARPPRLPRPRPRPEVVPRP | 1.32
108 | RRIRHRPPRLPRPRPRPEMFPRP | 0.223
109 | RRIRQRPPRLPRPRPRPGFEPRP | 0.809
110 | RRIRGRPPRLPRPRPRPVWKPRP | 0.113
111 | RRIRRRPPRLPRPRPRPYYLPRP | -0.308
112 | RRIRHRPPRLPRPRPRPGPPPRP | 0.228
113 | RRIRQRPPRLPRPRPRPCQWPRP | -0.205
114 | RRIRPRPPRLPRPRPRPFCRPRP | 0.00205
115 | RRIRHRPPRLPRPRPRPYTQPRP | -0.711
116 | RRIRYRPPRLPRPRPRPIYWPRP | -0.204
117 | RRIRLRPPRLPRPRPRPNMWPRP | -0.235
118 | RRIRYRPPRLPRPRPRPLFSPRP | -0.673
119 | RRIRFRPPRLPRPRPRPNREPRP | -0.181
120 | RRIRQRPPRLPRPRPRPMYIPRP | -0.0435
121 | RRIRVRPPRLPRPRPRPTSFPRP | -0.0728
122 | RRIRERPPRLPRPRPRPFQDPRP | 0.0039
123 | RRIRQRPPRLPRPRPRPLRIPRP | 0.116
124 | RRIRCRPPRLPRPRPRPLLVPRP | -0.317
125 | RRIRCRPPRLPRPRPRPLWKPRP | 0.101
